Experimental data taken from patent US20210332350A1.

Experiments:
Assay in all cases: cell-based or functional assay
[1] = biological target: E. coli single-strand DNA-binding protein (SSB) (Escherichia coli) (UniProt P0AGE0)
[2] = biological target: Corynebacterium glutamicum SSB (Corynebacterium glutamicum)
[3] = biological target: Lactobacillus reuteri SSB (Lactobacillus reuteri)

Chain of UniProt P0AGE0 (P0AGE0 2-178 limits assumed): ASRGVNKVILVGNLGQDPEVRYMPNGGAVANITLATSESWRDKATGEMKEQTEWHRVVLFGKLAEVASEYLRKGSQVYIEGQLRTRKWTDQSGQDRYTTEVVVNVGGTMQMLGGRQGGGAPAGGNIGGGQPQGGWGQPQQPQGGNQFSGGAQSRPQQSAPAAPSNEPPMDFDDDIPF

| Substance | Allele Recombination (AR) Frequency in E. coli, bi-cistronic co-expression [1] | Allele Recombination (AR) Frequency in E. coli, bi-cistronic co-expression [2] | increase of AR frequency over the SSAP alone [2] | Allele Recombination (AR) Frequency in E. coli, bi-cistronic co-expression [3] | increase of recombination frequency over the SSAP alone [3] |
| --- | --- | --- | --- | --- | --- |
| λ β expressed from pARC8 in E. coli (no tag stated) (from UniProt P03698 1-261) | 0.09 |  |  |  |  |
| Corynebacterium glutamicum recT |  | 0.245 | 10 fold | 0.044 |  |
| Lactobacillus reuteri recT1 |  | 0.000496 |  | 0.003 | 10 fold |
